Values of other authors in article PMC10910070.

System: gliadin (wheat, commercial mixture) (wheat)
Assay: not stated (cited value)
Details: 5 mM Tris pH 7.4, 25 C; 300 uL AuNPs + 200 uL 40 nM aptamer + 200 uL gliadin, then 200 uL NaCl (40 mM in Methods, 37 mM in Fig. 2 legend), 900 uL final

Row | Sequence | Kd [nM]
1 | CCAGTCTCCCGTTTACCGCGCCTACACATGTCTGAATGCC [Apt-1] | 186
2 | CTACACATGTCTGAATGCC [Apt-2] | 148
